Test results reported in FireProtDB (doi:10.1016/j.bpc.2020.106337).

B1: non-specific serine/threonine protein kinase, O49003 (parent)
chain: MASKGAGGGGGGHEEPQRPKQQLPRDSRGSLEVFNPSSSSAAVEPPSAFRPAARSASPFIEEATGGIEDVGKATQRAAEWGLVLQTNEQTGRPQGVSARSSGGGGSARSSSDDKAVAGAIPRVSEELRAALSAFQQTFVVSDASRPGHPIMYASAGFFNMTGYTSKEVVGRNCRFLQGSGTDPAEIAKIRQALANGSNYCGRVLNYKKDGTAFWNLLTIAPIKDEEGRVLKFIGMQVEVSKYTEGNKDTVVRPNGLPESLIKYDARQKDQARSSVSELLLAIKNPRSLSESTNSTFKRKSQESVGALTGDRPGKRSSESGSRRNSKSGARTSLQKISEVPERGSKSRKSGLYSLMSLLGMGPGNIEKDMLKPRDEDPLLDSDDERPESFDDELRRKEMRRGIDLATTLERIEKNFVITDPRLPDNPIIFASDSFLQLTEYSREEILGRNCRFLQGPETDRATVRKIRDAIDNQTEVTVQLINYTKSGKKFWNLFHLQPMRDQKGDVQYFIGVQLDGTEHVRDAAEREGVMLIKKTAENIDEAAKELPDANLRPEDLWANHSKVVLPKPHMKDSASWRAIQKVLEGGENIDLKHFRPVKPLGSGDTGSVHLVELLNTGEYFAMKAMDKNVMLNRNKVHRANAEREILDMLDHPFLPTLYASFQTKTHICLITDYYPGGELFLLLDRQPLKVLREDAVRFYAAEVVIALEYLHCQGIIYRDLKPENILLHRDGHISLTDFDLSCLTSCRPQVFLPEEANKKSRRKSRSSPIFFAEPMRASNSFVGTEEYIAPEIITGAGHTSAVDWWALGILLYEMLYGYTPFRGKTRQRTFANILHKDIRFPASISVSLPARQLIYRLLHRDPSNRLGSYEGSNEIKEHPFFRGINWALVRGTAPPKLDAPLFPDDTDKGMGDAAAADTHTDMF

Variants of: B1
Settings: Avena sativa; pH 4; Thermal; CD; Sodium acetate; transition: 2; reversible: partially reversible; structure 2V0U; whole UniProt chain shown

Variant	Tm [°C]	change of melting temperature, mutant - wild type (higher = more stable) [°C]
C450A	51	0.7

Same assay, conditions: Avena sativa; pH 4; Thermal; DSC; Sodium acetate; transition: 2; reversible: partially reversible; structure 2V0U; whole UniProt chain shown

Variant	Tm [°C]	change of melting temperature, mutant - wild type (higher = more stable) [°C]
C450A	50.7	2.7

Same assay, conditions: Avena sativa; pH 4; Thermal; fluorescence; Sodium acetate; transition: 2; reversible: partially reversible; structure 2V0U; whole UniProt chain shown

Variant	Tm [°C]	change of melting temperature, mutant - wild type (higher = more stable) [°C]
C450A	49.9	2.8

Same assay, conditions: Avena sativa; pH 7; 20 °C; Urea; fluorescence; sodium phosphate; transition: 2; reversible: no; structure 2V0U; whole UniProt chain shown

Variant	ddG of mutation (higher = less stable) [kcal/mol]	denaturant m value [kcal/mol/M]	denaturant midpoint (higher = more stable) [M]	unfolding free energy [kcal/mol]
C450A	-0.48	1.67	3.39	6.07

Same assay, conditions: Avena sativa; pH 7; Thermal; CD; sodium phosphate; transition: 2; reversible: partially reversible; structure 2V0U; whole UniProt chain shown

Variant	Tm [°C]	change of melting temperature, mutant - wild type (higher = more stable) [°C]
C450A	64.4	3.3

Same assay, conditions: Avena sativa; pH 7; Thermal; DSC; sodium phosphate; transition: 2; reversible: partially reversible; structure 2V0U; whole UniProt chain shown

Variant	Tm [°C]	change of melting temperature, mutant - wild type (higher = more stable) [°C]
C450A	65	3.1

Same assay, conditions: Avena sativa; pH 7; Thermal; fluorescence; sodium phosphate; transition: 2; reversible: partially reversible; structure 2V0U; whole UniProt chain shown

Variant	Tm [°C]	change of melting temperature, mutant - wild type (higher = more stable) [°C]
C450A	63.6	3.8

Same assay, conditions: Avena sativa; pH 8; Thermal; CD; sodium phosphate; transition: 2; reversible: partially reversible; structure 2V0U; whole UniProt chain shown

Variant	Tm [°C]	change of melting temperature, mutant - wild type (higher = more stable) [°C]
C450A	64.4	2.6

Same assay, conditions: Avena sativa; pH 8; Thermal; DSC; sodium phosphate; transition: 2; reversible: partially reversible; structure 2V0U; whole UniProt chain shown

Variant	Tm [°C]	change of melting temperature, mutant - wild type (higher = more stable) [°C]
C450A	63.8	3.7

Same assay, conditions: Avena sativa; pH 8; Thermal; fluorescence; sodium phosphate; transition: 2; reversible: partially reversible; structure 2V0U; whole UniProt chain shown

Variant	Tm [°C]	change of melting temperature, mutant - wild type (higher = more stable) [°C]
C450A	63.5	3.4

Same assay, conditions: Avena sativa; pH 9; Thermal; DSC; glycine; transition: 2; reversible: partially reversible; structure 2V0U; whole UniProt chain shown

Variant	Tm [°C]	change of melting temperature, mutant - wild type (higher = more stable) [°C]
C450A	66	4.2

Same assay, conditions: Avena sativa; pH 9; Thermal; fluorescence; glycine; transition: 2; reversible: partially reversible; structure 2V0U; whole UniProt chain shown

Variant	Tm [°C]	change of melting temperature, mutant - wild type (higher = more stable) [°C]
C450A	63.5	2.6
